The target of test [1] is recombinant human soluble MSLN (human) (UniProt Q13421). The experiment in a line: Biacore (SPR), antibody captured on chip, rHuMSLN sol. in flow. (In SPR one partner is held on a chip, and binding of the other changes the refractive index at the surface.)
For test [2], the target named is native human MSLN expressed on the cell surface (N87 tumor cells) (human) (UniProt Q13421). The experiment in a line: KinExA equilibrium binding to N87 tumor cells expressing native human MSLN. (In general: Kinetic exclusion samples the free partner from a solution-phase mixture.)
Test [3] shares this target. The experiment in a line: KinExA on N87 cells compared with Biacore on soluble MSLN.

Sequence of native human MSLN expressed on the cell surface (N87 tumor cells) (human) (Q13421 296-606 limits assumed): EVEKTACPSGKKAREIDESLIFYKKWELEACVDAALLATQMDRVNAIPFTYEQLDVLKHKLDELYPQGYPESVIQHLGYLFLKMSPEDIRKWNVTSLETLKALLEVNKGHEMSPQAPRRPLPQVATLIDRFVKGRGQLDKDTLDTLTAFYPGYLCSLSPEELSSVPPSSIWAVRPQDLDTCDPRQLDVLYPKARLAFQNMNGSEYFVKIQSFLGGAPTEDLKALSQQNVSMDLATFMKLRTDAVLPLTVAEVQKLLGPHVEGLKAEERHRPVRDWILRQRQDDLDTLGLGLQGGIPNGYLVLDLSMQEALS
Sequence of recombinant human soluble MSLN (human) (Q13421 296-606 limits assumed): as above

B1: Ab237 (antibody, V domains shown)
VH: QVQLQESGPGLVKPSQTLSLTCTVSGGSINNNNYYWTWIRQHPGKGLEWIGYIYYSGSTFYNPSLKSRVTISVDTSKTQFSLKLSSVTAADTAVYYCAREDTMTGLDVWGQGTTVTVSS
VL: DIQMTQSPSSLSASVGDRVTITCRASQSINNYLNWYQQKPGKAPTLLIYAASSLQSGVPSRFSGSRSGTDFTLTISSLQPEDFAAYFCQQTYSNPTFGQGTKVEVK
Consider B1, for which the dissociation constant (Kd) in test [1] was determined as 0.097 nM; in test [2], 0.0035 nM. Besides, the fold higher selectivity for native surface bound MSLN compared to soluble MSLN in test [3] was determined as 30 fold.

Usually Kd stands for the concentration at which binding is half-saturated.

Values taken from patent US20190055316A1.
